Laboratory results: the Human Domainome abundance scans (Beltran et al. 2025)
± gives the uncertainty stated by the source.

B1: Spectrin alpha chain, erythrocytic 1, residues 979 to 1036; numbered along this chain, P02549 (parent)
chain: EQRVMALYDFQARSPREVTMKKGDVLTLLSSINKDWWKVEAADHQGIVPAVYVRRLAH

Variants of: B1
Assay: abundance fitness (aPCA) (normalised: wild type 0, dead -1); higher = more abundant; growth selection in yeast, the domain comes from the species named
Details: Homo sapiens

| Variant | abundance fitness |
| --- | --- |
| A42Q | -0.021 ± 0.077 |
| A42T | -0.503 ± 0.24 |
| A42C | -0.197 ± 0.24 |
| A42L | 0.178 ± 0.16 |
| A42H | -0.031 ± 0.33 |
| V18F | -0.339 ± 0.25 |
| V18E | -0.784 ± 0.26 |
| Y52S | 0.155 ± 0.082 |
| P49N | -0.694 ± 0.14 |
| P49V | -0.797 ± 0.36 |
| K22C | -0.586 ± 0.42 |
| K22A | -0.664 ± 0.17 |
| K22E | -0.819 ± 0.36 |
| Q2P | -0.874 ± 0.36 |
| Q2T | -0.614 ± 0.38 |
| K34A | -0.292 ± 0.086 |
| K34L | 0.207 ± 0.17 |
| K34G | -0.415 ± 0.081 |
| K34V | -0.741 ± 0.19 |
| K34R | -0.168 ± 0.097 |
| I32W | 1.06 ± 0.31 |
| P15E | -0.077 ± 0.17 |
| P15D | 0.163 ± 0.16 |
| P15Y | 0.325 ± 0.43 |

| Variant | abundance fitness |
| --- | --- |
| D35E | -0.364 ± 0.26 |
| D35Q | -0.697 ± 0.31 |
| D35S | -0.006 ± 0.18 |
| S31D | 0.673 ± 0.16 |
| S31C | -0.157 ± 0.23 |
| S31A | 0.092 ± 0.06 |
| S31W | -0.814 ± 0.12 |
| S31G | -0.34 ± 0.11 |
| V51Q | 0.126 ± 0.19 |
| V51I | 0.201 ± 0.17 |
| V51G | 0.146 ± 0.099 |
| V51Y | -0.242 ± 0.1 |
| V51W | -0.18 ± 0.15 |
| V51S | 0.579 ± 0.08 |
| V51R | 0.643 ± 0.079 |
| V51K | 0.525 ± 0.14 |
| V51P | 0.173 ± 0.17 |
| V51F | 0.246 ± 0.26 |
| R54L | -0.963 ± 0.19 |
| R54V | -0.53 ± 0.12 |
| R54H | 0.83 ± 0.17 |
| R54P | -0.292 ± 0.49 |
| L26A | -0.493 ± 0.17 |
| L26Y | -0.173 ± 0.36 |

| Variant | abundance fitness |
| --- | --- |
| L26I | -0.691 ± 0.11 |
| L26C | -0.046 ± 0.44 |
| L26R | -0.819 ± 0.38 |
| L7S | -0.85 ± 0.29 |
| L7V | -0.199 ± 0.15 |
| L7H | -1.18 ± 0.43 |
| L7P | -0.76 ± 0.14 |
| A12R | -0.389 ± 0.17 |
| A12S | -0.802 ± 0.24 |
| A12W | -0.804 ± 0.4 |
| A12L | -0.964 ± 0.23 |
| Y8F | 0.772 ± 0.34 |
| R13G | -0.527 ± 0.079 |
| R13K | -0.414 ± 0.26 |
| D9S | -0.754 ± 0.23 |
| D9E | -1.01 ± 0.41 |
| R3K | 0.226 ± 0.099 |
| R3E | -0.582 ± 0.38 |
| R3F | 0.074 ± 0.12 |
| R3S | -0.737 ± 0.2 |
| R3M | -0.448 ± 0.14 |
| N33C | -0.929 ± 0.38 |
| N33R | -0.739 ± 0.12 |
| N33G | -0.447 ± 0.18 |

| Variant | abundance fitness |
| --- | --- |
| V53W | -0.634 ± 0.43 |
| V53A | -0.766 ± 0.25 |
| V53T | -0.872 ± 0.33 |
| Q11P | -0.91 ± 0.37 |
| Q11T | 0.028 ± 0.14 |
| Q11I | -0.419 ± 0.33 |
| Q11E | -0.328 ± 0.34 |
| G46K | -0.459 ± 0.37 |
| G46C | -0.361 ± 0.34 |
| G46Y | -0.897 ± 0.25 |
| S14I | -0.276 ± 0.33 |
| S14Q | -0.769 ± 0.26 |
| S14T | -0.069 ± 0.094 |
| S14G | -0.358 ± 0.14 |
| S14V | -0.677 ± 0.26 |
| R16S | 0.579 ± 0.45 |
| E17K | -0.403 ± 0.46 |
| E17R | -0.778 ± 0.21 |
| E17F | -0.594 ± 0.46 |
| E17W | -0.8 ± 0.28 |
| E17A | -0.64 ± 0.23 |
| E17V | -0.9 ± 0.32 |
| Q45A | -0.171 ± 0.13 |
| Q45V | 0.1 ± 0.17 |

| Variant | abundance fitness |
| --- | --- |
| F10W | 0.365 ± 0.085 |
| F10P | -0.712 ± 0.2 |
| F10I | -0.341 ± 0.44 |
| F10R | -0.472 ± 0.11 |
| S30C | -0.337 ± 0.28 |
| A50L | -0.844 ± 0.2 |
| A50G | -0.967 ± 0.19 |
| K21L | -0.731 ± 0.14 |
| K21H | -0.304 ± 0.35 |
| K21I | -0.779 ± 0.22 |
| K21A | -0.561 ± 0.14 |
| K21V | -0.781 ± 0.12 |
| K21R | -0.105 ± 0.13 |
| K21F | -0.643 ± 0.36 |
| V4L | -0.537 ± 0.098 |
| T27C | -0.627 ± 0.32 |
| T27I | -0.521 ± 0.29 |
| T27A | -0.975 ± 0.32 |
| W36K | -0.675 ± 0.29 |
| W36G | -0.778 ± 0.2 |
| W36D | -0.582 ± 0.15 |
| W36V | -0.554 ± 0.42 |
| W36E | 0.664 ± 0.2 |
| M5A | -0.587 ± 0.14 |

| Variant | abundance fitness |
| --- | --- |
| M5K | -0.201 ± 0.39 |
| M5I | 0.162 ± 0.14 |
| M5C | -0.516 ± 0.18 |
| H44S | 0.03 ± 0.1 |
| H44L | -0.692 ± 0.12 |
| E40G | -0.217 ± 0.14 |
| E40A | 0.243 ± 0.058 |
| E40R | 0.217 ± 0.086 |
| M20I | -0.554 ± 0.38 |
| M20C | -0.726 ± 0.21 |
| M20Q | -0.236 ± 0.17 |
| M20R | -0.963 ± 0.19 |
| M20W | -0.622 ± 0.14 |
| M20V | -0.22 ± 0.12 |
| M20N | -0.209 ± 0.44 |
| D43Q | 0.413 ± 0.21 |
| D43P | -0.552 ± 0.38 |
| D43L | -0.876 ± 0.36 |
| D43S | 0.096 ± 0.17 |
| D43G | 0.567 ± 0.076 |
| V48K | -0.56 ± 0.11 |
| V48G | -1.09 ± 0.33 |
| V48Q | -0.656 ± 0.12 |
| K38I | 0.097 ± 0.38 |

| Variant | abundance fitness |
| --- | --- |
| K38T | 0.373 ± 0.14 |
| K38H | -0.016 ± 0.4 |
| K38R | -0.033 ± 0.14 |
| K38F | 0.208 ± 0.25 |
| I47C | -0.226 ± 0.41 |
| D24R | -0.689 ± 0.28 |
| D24Q | 0.579 ± 0.22 |
| D24S | -0.256 ± 0.24 |
| D24M | -0.527 ± 0.15 |
| D24V | -0.421 ± 0.27 |
| D24T | 0.006 ± 0.41 |
| L28R | -0.938 ± 0.18 |
| L28A | -0.762 ± 0.26 |
| L28T | -0.47 ± 0.25 |
| L28G | -0.756 ± 0.14 |
| L28W | -0.536 ± 0.47 |
| L29G | -0.464 ± 0.23 |
| L29P | 0.075 ± 0.33 |
| L29E | -0.934 ± 0.22 |
| W37R | -0.267 ± 0.2 |
| W37L | 0.323 ± 0.059 |
| W37I | 0.405 ± 0.2 |
| H58R | -0.078 ± 0.39 |
